This series concerns Escherichia coli TOP10. Nature of the series: shrunken log2 fold change of peptide-encoding DNA abundance (4.5 h post-induction vs induction); higher = less antimicrobial activity (less host growth inhibition). As to conditions: time post-induction: 4.5 h; library: site-saturation at positions 5, 18, 19, 20.
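Also: peptides expressed intracellularly from a pBAD plasmid library in pooled LB shake-flask culture, induced with 0.3% L-arabinose, DNA abundance read by NGS, three biological replicates, DESeq2 with apeglm shrinkage.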

Regarding RRIRWRPPRLPRPRPRPSQCPRP, the “shrunken log2 fold change” value came to 0.0963.

Turning to RRIRLRPPRLPRPRPRPDNRPRP, the “shrunken log2 fold change” value was -0.0526.

Regarding RRIRNRPPRLPRPRPRPNWMPRP, the “shrunken log2 fold change” value is -0.199.

With RRIRDRPPRLPRPRPRPRTYPRP, the “shrunken log2 fold change” value is -0.126.

With RRIRKRPPRLPRPRPRPKKNPRP, the “shrunken log2 fold change” value came to 0.555.

RRIRTRPPRLPRPRPRPSPEPRP: the “shrunken log2 fold change” value stood at 0.0171.

Turning to RRIRKRPPRLPRPRPRPKHVPRP, the “shrunken log2 fold change” value is 0.473.

In the case of RRIRDRPPRLPRPRPRPLNNPRP, the “shrunken log2 fold change” value is -0.305.

As to RRIRWRPPRLPRPRPRPDGRPRP, the “shrunken log2 fold change” value is -0.00151.

In the case of RRIRMRPPRLPRPRPRPKVLPRP, the “shrunken log2 fold change” value is 0.0109.

RRIRWRPPRLPRPRPRPDCFPRP: the “shrunken log2 fold change” value is 1.32.

For RRIRARPPRLPRPRPRPQWVPRP, the “shrunken log2 fold change” value was 0.124.

In the case of RRIRPRPPRLPRPRPRPLRWPRP, the “shrunken log2 fold change” value was 0.588.

Consider RRIRDRPPRLPRPRPRPFDKPRP, for which the “shrunken log2 fold change” value is -0.0665.

Regarding RRIRKRPPRLPRPRPRPCFWPRP, the “shrunken log2 fold change” value was found to be 0.42.

On to RRIRMRPPRLPRPRPRPRCKPRP, for which the “shrunken log2 fold change” value is 0.198.

For RRIRKRPPRLPRPRPRPIMYPRP, the “shrunken log2 fold change” value came out at 0.0532.

Turning to RRIRMRPPRLPRPRPRPSFQPRP, the “shrunken log2 fold change” value was -0.283.

Take RRIRHRPPRLPRPRPRPWHCPRP: the “shrunken log2 fold change” value was found to be 0.162.

For RRIRFRPPRLPRPRPRPRRVPRP, the “shrunken log2 fold change” value turned out to be 0.258.

On to RRIRERPPRLPRPRPRPLDNPRP, for which the “shrunken log2 fold change” value is -0.487.

As for RRIRMRPPRLPRPRPRPDLYPRP, the “shrunken log2 fold change” value is 0.0737.

As for RRIRIRPPRLPRPRPRPSAVPRP, the “shrunken log2 fold change” value was -0.306.

In the case of RRIRHRPPRLPRPRPRPLHLPRP, the “shrunken log2 fold change” value is -0.0926.

For RRIRDRPPRLPRPRPRPQFFPRP, the “shrunken log2 fold change” value is -0.00144.

Regarding RRIRMRPPRLPRPRPRPDHYPRP, the “shrunken log2 fold change” value is -0.0146.

As to RRIRDRPPRLPRPRPRPIHEPRP, the “shrunken log2 fold change” value was -0.0852.

For RRIRRRPPRLPRPRPRPCTWPRP, the “shrunken log2 fold change” value was -0.0877.

Regarding RRIRTRPPRLPRPRPRPSDVPRP, the “shrunken log2 fold change” value is -0.83.

Take RRIRMRPPRLPRPRPRPMWVPRP: the “shrunken log2 fold change” value is 0.0332.

Turning to RRIRIRPPRLPRPRPRPMFHPRP, the “shrunken log2 fold change” value was -0.517.

For RRIRPRPPRLPRPRPRPNEFPRP, the “shrunken log2 fold change” value was -0.0949.

RRIRSRPPRLPRPRPRPMNMPRP: the “shrunken log2 fold change” value was -0.118.

On to RRIRDRPPRLPRPRPRPVKNPRP, for which the “shrunken log2 fold change” value was -0.0293.

As for RRIRNRPPRLPRPRPRPVSVPRP, the “shrunken log2 fold change” value was -0.143.

As to RRIRMRPPRLPRPRPRPCPWPRP, the “shrunken log2 fold change” value came out at 0.0763.

On to RRIRHRPPRLPRPRPRPALGPRP, for which the “shrunken log2 fold change” value is -0.0558.

For the sequence RRIRNRPPRLPRPRPRPMTIPRP, the “shrunken log2 fold change” value was -0.35.

Consider RRIRWRPPRLPRPRPRPPNMPRP, for which the “shrunken log2 fold change” value came to 0.0854.

For RRIRDRPPRLPRPRPRPYDHPRP, the “shrunken log2 fold change” value was -0.361.

Turning to RRIRRRPPRLPRPRPRPCLDPRP, the “shrunken log2 fold change” value is -0.167.

As for RRIRFRPPRLPRPRPRPMPAPRP, the “shrunken log2 fold change” value was found to be 0.283.

With RRIRSRPPRLPRPRPRPADDPRP, the “shrunken log2 fold change” value came out at 0.479.

For RRIRQRPPRLPRPRPRPKTDPRP, the “shrunken log2 fold change” value was -0.326.

Regarding RRIRARPPRLPRPRPRPIDQPRP, the “shrunken log2 fold change” value turned out to be 0.444.

On to RRIRARPPRLPRPRPRPFWKPRP, for which the “shrunken log2 fold change” value is -0.13.

Turning to RRIRMRPPRLPRPRPRPKKKPRP, the “shrunken log2 fold change” value turned out to be 1.61.

As to RRIRHRPPRLPRPRPRPQADPRP, the “shrunken log2 fold change” value is -0.139.

As for RRIRARPPRLPRPRPRPHRQPRP, the “shrunken log2 fold change” value stood at 0.29.

Consider RRIRHRPPRLPRPRPRPYRSPRP, for which the “shrunken log2 fold change” value amounted to 0.0215.

Turning to RRIRQRPPRLPRPRPRPFEYPRP, the “shrunken log2 fold change” value was -0.0368.

In the case of RRIRNRPPRLPRPRPRPSGSPRP, the “shrunken log2 fold change” value was -0.0937.

With RRIRHRPPRLPRPRPRPDPQPRP, the “shrunken log2 fold change” value is 0.108.

For the sequence RRIRTRPPRLPRPRPRPKGYPRP, the “shrunken log2 fold change” value was -0.0992.

With RRIRTRPPRLPRPRPRPKLPPRP, the “shrunken log2 fold change” value amounted to 0.214.

RRIRMRPPRLPRPRPRPPPEPRP: the “shrunken log2 fold change” value turned out to be 1.82.

Take RRIRDRPPRLPRPRPRPTHGPRP: the “shrunken log2 fold change” value was 0.117.

In the case of RRIRQRPPRLPRPRPRPDTKPRP, the “shrunken log2 fold change” value is -0.00171.

Take RRIRTRPPRLPRPRPRPDQRPRP: the “shrunken log2 fold change” value is -0.0808.

With RRIRSRPPRLPRPRPRPRGKPRP, the “shrunken log2 fold change” value came out at 0.0832.

Consider RRIRLRPPRLPRPRPRPHNVPRP, for which the “shrunken log2 fold change” value was determined as 0.0245.

As to RRIRKRPPRLPRPRPRPEVPPRP, the “shrunken log2 fold change” value is 0.539.

Turning to RRIRDRPPRLPRPRPRPGAYPRP, the “shrunken log2 fold change” value was 0.136.

On to RRIRWRPPRLPRPRPRPCVDPRP, for which the “shrunken log2 fold change” value amounted to 0.0275.

For RRIRCRPPRLPRPRPRPNTSPRP, the “shrunken log2 fold change” value was -0.343.

As to RRIRPRPPRLPRPRPRPAQAPRP, the “shrunken log2 fold change” value was 0.329.

For the sequence RRIRQRPPRLPRPRPRPDKMPRP, the “shrunken log2 fold change” value was determined as 0.021.

As to RRIRERPPRLPRPRPRPTLYPRP, the “shrunken log2 fold change” value was -0.184.

RRIRMRPPRLPRPRPRPIFVPRP: the “shrunken log2 fold change” value is -0.111.

For RRIRERPPRLPRPRPRPQPMPRP, the “shrunken log2 fold change” value was -0.185.

On to RRIRVRPPRLPRPRPRPLYSPRP, for which the “shrunken log2 fold change” value is -0.343.

Consider RRIRERPPRLPRPRPRPMWLPRP, for which the “shrunken log2 fold change” value is -0.07.

Take RRIRYRPPRLPRPRPRPVWAPRP: the “shrunken log2 fold change” value was found to be 0.205.

For the sequence RRIRGRPPRLPRPRPRPSFTPRP, the “shrunken log2 fold change” value worked out at 0.079.

Consider RRIRARPPRLPRPRPRPRIGPRP, for which the “shrunken log2 fold change” value is 0.267.

As for RRIRKRPPRLPRPRPRPVRLPRP, the “shrunken log2 fold change” value amounted to 0.203.

With RRIRFRPPRLPRPRPRPQFIPRP, the “shrunken log2 fold change” value was -0.141.

Take RRIRSRPPRLPRPRPRPAWLPRP: the “shrunken log2 fold change” value came out at 0.534.

As to RRIRLRPPRLPRPRPRPTLWPRP, the “shrunken log2 fold change” value came out at 0.284.

As to RRIRDRPPRLPRPRPRPRHNPRP, the “shrunken log2 fold change” value was -0.548.

Consider RRIRHRPPRLPRPRPRPEFVPRP, for which the “shrunken log2 fold change” value is 0.02.

Consider RRIRIRPPRLPRPRPRPDVIPRP, for which the “shrunken log2 fold change” value is -0.00836.

As for RRIRARPPRLPRPRPRPPDHPRP, the “shrunken log2 fold change” value worked out at 0.683.

For the sequence RRIRLRPPRLPRPRPRPISDPRP, the “shrunken log2 fold change” value is -0.014.

On to RRIRYRPPRLPRPRPRPDCDPRP, for which the “shrunken log2 fold change” value is -0.124.

On to RRIRQRPPRLPRPRPRPYWDPRP, for which the “shrunken log2 fold change” value is -0.192.

On to RRIRPRPPRLPRPRPRPILSPRP, for which the “shrunken log2 fold change” value is -0.038.

Regarding RRIRPRPPRLPRPRPRPVMKPRP, the “shrunken log2 fold change” value was -0.00931.

With RRIRARPPRLPRPRPRPWDDPRP, the “shrunken log2 fold change” value is 0.177.

With RRIRIRPPRLPRPRPRPKLEPRP, the “shrunken log2 fold change” value is -0.136.

In the case of RRIRYRPPRLPRPRPRPRAEPRP, the “shrunken log2 fold change” value was -0.162.

The record behind these values is the supplement of paper PMC9112550, “Optimization of the antimicrobial peptide Bac7 by deep mutational scanning” (BMC Biology, 2022).
